B1: Azoarcus group I ribozyme (parent)
chain: GUGCCUUGCGCCGGGAAACCACGCAAGGGAUGGUGUCAAAUUCGGCGAAACCUAAGCGCCCGCCCGGGCGUAUGGCAACGCCGAGCCAAGCUUCGGCGCCUGCGCCGAUGAAGGUGUAGAGACUAGACGGCACCCACCUAAGGCAAACGCUAUGGUGAAGGCAUAGUCCAGGGAGUGGCGAAAGUCACACAAACCGG

Variants of: B1
Assay: reverse-splicing fitness (ratio to wild type); higher = more active; in vitro selection; Mg2+ level not given
Summary of the method: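 An in vitro group I ribozyme library with randomized positions was T7-transcribed and gel-purified. In triplicate, 10 pmol RNA in EPPS pH 7.5 was reacted with 50 pmoles of a 30-nt RNA substrate for 1 h at 37 °C across several added MgCl2 levels (1–48 mM), then stopped with EDTA. Products were reverse transcribed from a substrate-complementary primer, PCR-amplified and sequenced (HiSeq 4000). Fitness is a variant's read proportion after selection over that before, normalised to wild type.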
Work on GUGCCUUGCGCCGGGAAACCACGCAAGGGAUGGUGUCAAAUUCGGCGAAACCUAAGCGCCCGCCCGGGCGUAUGGCAACGCGGAGCCAAGCUUCGGCGCCUGCGCCGAUGCAGGUGUAGCGACUAGACGGCACCCACCUAAGGCCAACGGUAUGGUGAAGGCAUAGUCUAGGGAGGGGCGAAAGUCACACAAACCGG [C82G A111C A120C A145C C150G C169U U176G] yielded a reverse-splicing fitness of 0.00572. With GUGCCUUGCGCCGGGAAACCACGCAAGGGAUGGUGUCAAAUUCGGCGAAACCUAAGCGCCCGCCCGGGCGUAUGGCAACGCGGAGCCAAGCUUCGGCGCCUGCGCCGAUGCAGGUGUAGCGACUAGACGGCACCCACCUAAGGCCAACGGUAUGGUGAAGGCAUAGUCCAGGGAGAGGCGAAAGUCACACAAACCGG [C82G A111C A120C A145C C150G U176A] the reverse-splicing fitness was 0.00528. Variant GUGCCUUGCGCCGGGAAACCACGCAAGGGAUGGUGUCAAAUUCGGCGAAACCUAAGCGCCCGCCCGGGCGUAUGGCAACGCGGAGCCAAGCUUCGGCGCCUGCGCCGAUGCAGGUGUAGCGACUAGACGGCACCCACCUAAGGCCAACGGUAUGGUGAAGGCAUAGUCCAGGGAGGGGCGAAAGUCACACAAACCGG [C82G A111C A120C A145C C150G U176G] has a reverse-splicing fitness of 0.00325. Work on GUGCCUUGCGCCGGGAAACCACGCAAGGGAUGGUGUCAAAUUCGGCGAAACCUAAGCGCCCGCCCGGGCGUAUGGCAACGCGGAGCCAAGCUUCGGCGCCUGCGCCGAUGCAGGUGUAGCGACUAGACGGCACCCACCUAAGGCCAACGGUAUGGUGAAGGCAUAGUCCAGGGAGCGGCGAAAGUCACACAAACCGG [C82G A111C A120C A145C C150G U176C] yielded a reverse-splicing fitness of 0.00825. With GUGCCUUGCGCCGGGAAACCACGCAAGGGAUGGUGUCAAAUUCGGCGAAACCUAAGCGCCCGCCCGGGCGUAUGGCAACGCGGAGCCAAGCUUCGGCGCCUGCGCCGAUGCAGGUGUAGCGACUAGACGGCACCCACCUAAGGCCAACGUUAUGGUGAAGGCAUAGUCGAGGGAGCGGCGAAAGUCACACAAACCGG [C82G A111C A120C A145C C150U C169G U176C] the reverse-splicing fitness was 0.0168. With GUGCCUUGCGCCGGGAAACCACGCAAGGGAUGGUGUCAAAUUCGGCGAAACCUAAGCGCCCGCCCGGGCGUAUGGCAACGCGGAGCCAAGCUUCGGCGCCUGCGCCGAUGCAGGUGUAGCGACUAGACGGCACCCACCUAAGGCCAACGUUAUGGUGAAGGCAUAGUCGAGGGAGGGGCGAAAGUCACACAAACCGG [C82G A111C A120C A145C C150U C169G U176G] the reverse-splicing fitness was 0.00745. For GUGCCUUGCGCCGGGAAACCACGCAAGGGAUGGUGUCAAAUUCGGCGAAACCUAAGCGCCCGCCCGGGCGUAUGGCAACGCGGAGCCAAGCUUCGGCGCCUGCGCCGAUGCAGGUGUAGCGACUAGACGGCACCCACCUAAGGCCAACGUUAUGGUGAAGGCAUAGUCGAGGGAGAGGCGAAAGUCACACAAACCGG [C82G A111C A120C A145C C150U C169G U176A], the reverse-splicing fitness was 0.0246. For GUGCCUUGCGCCGGGAAACCACGCAAGGGAUGGUGUCAAAUUCGGCGAAACCUAAGCGCCCGCCCGGGCGUAUGGCAACGCGGAGCCAAGCUUCGGCGCCUGCGCCGAUGCAGGUGUAGCGACUAGACGGCACCCACCUAAGGCCAACGUUAUGGUGAAGGCAUAGUCCAGGGAGUGGCGAAAGUCACACAAACCGG [C82G A111C A120C A145C C150U], the reverse-splicing fitness was 0.0168. For GUGCCUUGCGCCGGGAAACCACGCAAGGGAUGGUGUCAAAUUCGGCGAAACCUAAGCGCCCGCCCGGGCGUAUGGCAACGCGGAGCCAAGCUUCGGCGCCUGCGCCGAUGCAGGUGUAGCGACUAGACGGCACCCACCUAAGGCCAACGUUAUGGUGAAGGCAUAGUCUAGGGAGAGGCGAAAGUCACACAAACCGG [C82G A111C A120C A145C C150U C169U U176A], the reverse-splicing fitness was 0.0131. Work on GUGCCUUGCGCCGGGAAACCACGCAAGGGAUGGUGUCAAAUUCGGCGAAACCUAAGCGCCCGCCCGGGCGUAUGGCAACGCGGAGCCAAGCUUCGGCGCCUGCGCCGAUGCAGGUGUAGCGACUAGACGGCACCCACCUAAGGCCAACGUUAUGGUGAAGGCAUAGUCGAGGGAGUGGCGAAAGUCACACAAACCGG [C82G A111C A120C A145C C150U C169G] yielded a reverse-splicing fitness of 0.00697. GUGCCUUGCGCCGGGAAACCACGCAAGGGAUGGUGUCAAAUUCGGCGAAACCUAAGCGCCCGCCCGGGCGUAUGGCAACGCGGAGCCAAGCUUCGGCGCCUGCGCCGAUGCAGGUGUAGCGACUAGACGGCACCCACCUAAGGCCAACGUUAUGGUGAAGGCAUAGUCAAGGGAGUGGCGAAAGUCACACAAACCGG [C82G A111C A120C A145C C150U C169A] showed a reverse-splicing fitness of 0.00728. Variant GUGCCUUGCGCCGGGAAACCACGCAAGGGAUGGUGUCAAAUUCGGCGAAACCUAAGCGCCCGCCCGGGCGUAUGGCAACGCGGAGCCAAGCUUCGGCGCCUGCGCCGAUGCAGGUGUAGCGACUAGACGGCACCCACCUAAGGCCAACGUUAUGGUGAAGGCAUAGUCUAGGGAGUGGCGAAAGUCACACAAACCGG [C82G A111C A120C A145C C150U C169U] has a reverse-splicing fitness of 0.011. With GUGCCUUGCGCCGGGAAACCACGCAAGGGAUGGUGUCAAAUUCGGCGAAACCUAAGCGCCCGCCCGGGCGUAUGGCAACGCGGAGCCAAGCUUCGGCGCCUGCGCCGAUGCAGGUGUAGCGACUAGACGGCACCCACCUAAGGCCAACGUUAUGGUGAAGGCAUAGUCAAGGGAGGGGCGAAAGUCACACAAACCGG [C82G A111C A120C A145C C150U C169A U176G] the reverse-splicing fitness was 0.00692. In the case of GUGCCUUGCGCCGGGAAACCACGCAAGGGAUGGUGUCAAAUUCGGCGAAACCUAAGCGCCCGCCCGGGCGUAUGGCAACGCGGAGCCAAGCUUCGGCGCCUGCGCCGAUGCAGGUGUAGCGACUAGACGGCACCCACCUAAGGCCAACGUUAUGGUGAAGGCAUAGUCAAGGGAGCGGCGAAAGUCACACAAACCGG [C82G A111C A120C A145C C150U C169A U176C], the reverse-splicing fitness is reported as 0.00824. GUGCCUUGCGCCGGGAAACCACGCAAGGGAUGGUGUCAAAUUCGGCGAAACCUAAGCGCCCGCCCGGGCGUAUGGCAACGCGGAGCCAAGCUUCGGCGCCUGCGCCGAUGCAGGUGUAGCGACUAGACGGCACCCACCUAAGGCCAACGUUAUGGUGAAGGCAUAGUCAAGGGAGAGGCGAAAGUCACACAAACCGG [C82G A111C A120C A145C C150U C169A U176A] gave a reverse-splicing fitness of 0.0125.

Reference: the RNAGym collection of RNA variant scans (doi:10.1093/molbev/msab373)
